Reference: patent US7125847
Where “and” joins values, the source holds several entries; their conditions need not be identical. Identical values can stand only once. Like-named read-outs stand apart in the source and are kept apart here. Where no end group is shown, it is not given here.

Key:
[1] = biological target: stretch-activated channels (SACs) of activated adult rat astrocytes (rat)
[2] = biological target: stretch-activated channels (SACs) of activated adult rat astrocytes (rat); remark: listed apart in the source
[3] = biological target: stretch-activated channels (SACs) of activated adult rat astrocytes (rat); assay: cell-based or functional assay

B1: GsMTx-4 purified from Grammostola spatulata venom (peptide)
peptide: GCLEFWWKCNPNDDKCCRPKLKCSKLFKLCNFSSG-NH2
modifications: disulfide (positions not given here); not fully specified (bridges); also: 3 disulfides (ICK motif), pairing not given here
[1]
  kon: 340000 M⁻¹ s⁻¹
[2]
  Kd: 631 nM and 415 nM
  koff: 0.21 s⁻¹
  kon: 330000 M⁻¹ s⁻¹
[3]
  average SAC current after GsMTx-4 washout: 2.28 pA
  average SAC current during GsMTx-4 application: 0.17 pA
  mean SAC current before GsMTx-4 application: 2.04 pA
  ratio of blocked to unblocked current I/I0: 0.083
  time constant of recovery of SAC current on washout: 4.7 s
